From publication PMC8933513 (2022) come the findings set out here.

The target of experiment [1] is human aminopeptidase N (hAPN) ectodomain, residues 62-963, wild type (UniProt P15144). Briefly: SPR; […], room temperature; […] (0.01 M HEPES, 0.15 M NaCl, 0.5% surfactant P20, 3 mM EDTA, pH 7.4); […]. On the technique in general: In SPR one partner is held on a chip, and binding of the other changes the refractive index at the surface.
Experiment [2] deals with porcine aminopeptidase N (pAPN) ectodomain, residues 58-961, wild type (pig) (UniProt P15145). The experiment is described as above.
Sequence of porcine aminopeptidase N (pAPN) ectodomain, residues 58-961, wild type (pig) (P15145 58-961): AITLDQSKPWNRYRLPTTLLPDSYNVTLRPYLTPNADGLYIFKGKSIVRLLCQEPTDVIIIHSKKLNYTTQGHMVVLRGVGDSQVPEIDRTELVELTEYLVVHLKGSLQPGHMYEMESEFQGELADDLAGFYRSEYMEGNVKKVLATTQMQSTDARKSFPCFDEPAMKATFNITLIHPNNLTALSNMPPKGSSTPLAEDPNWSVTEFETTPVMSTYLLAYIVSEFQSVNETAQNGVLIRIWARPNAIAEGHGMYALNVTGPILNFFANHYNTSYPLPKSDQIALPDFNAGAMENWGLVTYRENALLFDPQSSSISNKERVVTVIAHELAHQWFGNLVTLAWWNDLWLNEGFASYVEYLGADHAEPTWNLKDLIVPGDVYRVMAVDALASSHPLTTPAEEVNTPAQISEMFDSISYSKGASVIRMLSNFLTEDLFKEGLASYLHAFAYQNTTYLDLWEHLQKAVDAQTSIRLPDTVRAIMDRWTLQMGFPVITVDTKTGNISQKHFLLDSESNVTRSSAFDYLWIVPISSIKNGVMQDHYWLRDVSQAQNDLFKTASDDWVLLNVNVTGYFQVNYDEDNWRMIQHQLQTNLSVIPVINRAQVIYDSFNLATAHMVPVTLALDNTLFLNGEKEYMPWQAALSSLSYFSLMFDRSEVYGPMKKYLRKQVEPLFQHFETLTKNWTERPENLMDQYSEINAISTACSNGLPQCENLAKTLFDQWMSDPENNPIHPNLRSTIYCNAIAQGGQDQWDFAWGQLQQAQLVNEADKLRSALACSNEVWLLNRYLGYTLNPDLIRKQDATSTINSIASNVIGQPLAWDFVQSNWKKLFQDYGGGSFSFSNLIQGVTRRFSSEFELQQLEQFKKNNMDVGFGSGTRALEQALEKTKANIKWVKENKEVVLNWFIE

Sequence of human aminopeptidase N (hAPN) ectodomain, residues 62-963, wild type (P15144 62-963): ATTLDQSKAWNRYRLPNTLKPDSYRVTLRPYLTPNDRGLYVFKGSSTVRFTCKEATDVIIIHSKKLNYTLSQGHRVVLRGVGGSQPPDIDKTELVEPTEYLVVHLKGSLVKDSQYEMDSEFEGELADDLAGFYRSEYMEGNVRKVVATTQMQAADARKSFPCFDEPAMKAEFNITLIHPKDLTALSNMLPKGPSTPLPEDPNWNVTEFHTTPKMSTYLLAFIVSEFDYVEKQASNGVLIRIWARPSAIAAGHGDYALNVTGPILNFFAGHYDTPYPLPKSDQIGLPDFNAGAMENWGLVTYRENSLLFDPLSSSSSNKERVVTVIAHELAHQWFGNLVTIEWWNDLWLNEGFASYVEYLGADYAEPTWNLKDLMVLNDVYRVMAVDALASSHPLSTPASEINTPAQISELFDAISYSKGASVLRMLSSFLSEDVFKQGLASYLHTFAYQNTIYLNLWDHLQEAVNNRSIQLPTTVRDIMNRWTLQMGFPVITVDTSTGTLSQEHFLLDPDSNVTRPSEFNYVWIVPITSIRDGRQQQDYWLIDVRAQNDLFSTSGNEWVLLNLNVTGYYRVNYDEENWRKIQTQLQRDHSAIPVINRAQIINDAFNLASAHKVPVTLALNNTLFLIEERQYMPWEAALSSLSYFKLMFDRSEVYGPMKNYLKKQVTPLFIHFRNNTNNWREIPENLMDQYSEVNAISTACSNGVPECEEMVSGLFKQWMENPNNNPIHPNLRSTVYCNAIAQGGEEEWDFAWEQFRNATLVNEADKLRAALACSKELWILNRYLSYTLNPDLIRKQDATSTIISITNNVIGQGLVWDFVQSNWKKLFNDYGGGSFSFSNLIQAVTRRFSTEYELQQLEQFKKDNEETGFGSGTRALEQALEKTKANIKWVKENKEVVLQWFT

In the case of “PDCoV RBD with mutation of residues F318, E320, R322, R357, and Y398”, the fold decrease in affinity against wild-type PDCoV RBD in experiment [1] and in experiment [2] was 5 to 150 fold in each case.
